Test results: patent publication EP1789452B1 (Janssen Pharmaceutica NV, dated 2006)
Ends that are not written are not given here.

T1: human GPCR135 (human, UniProt Q9NSD7 1-469)
T1 construct: also called SALPR
T1 sequence: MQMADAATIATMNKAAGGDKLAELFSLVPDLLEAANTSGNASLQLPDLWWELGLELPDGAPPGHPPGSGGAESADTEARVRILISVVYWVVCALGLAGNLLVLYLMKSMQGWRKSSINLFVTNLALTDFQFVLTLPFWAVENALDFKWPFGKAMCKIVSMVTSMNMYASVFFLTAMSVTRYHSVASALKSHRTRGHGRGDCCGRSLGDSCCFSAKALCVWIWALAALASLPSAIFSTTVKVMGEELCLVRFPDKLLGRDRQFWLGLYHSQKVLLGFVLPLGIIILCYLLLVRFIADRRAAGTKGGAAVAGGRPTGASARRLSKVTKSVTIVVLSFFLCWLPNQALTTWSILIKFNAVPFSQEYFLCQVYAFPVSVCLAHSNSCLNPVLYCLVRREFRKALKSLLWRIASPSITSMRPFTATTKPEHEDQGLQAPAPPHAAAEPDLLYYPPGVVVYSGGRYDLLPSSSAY

T2: human LGR7 (human, UniProt Q9HBX9 1-757)
T2 construct: whole, on cells
T2 sequence (looked up): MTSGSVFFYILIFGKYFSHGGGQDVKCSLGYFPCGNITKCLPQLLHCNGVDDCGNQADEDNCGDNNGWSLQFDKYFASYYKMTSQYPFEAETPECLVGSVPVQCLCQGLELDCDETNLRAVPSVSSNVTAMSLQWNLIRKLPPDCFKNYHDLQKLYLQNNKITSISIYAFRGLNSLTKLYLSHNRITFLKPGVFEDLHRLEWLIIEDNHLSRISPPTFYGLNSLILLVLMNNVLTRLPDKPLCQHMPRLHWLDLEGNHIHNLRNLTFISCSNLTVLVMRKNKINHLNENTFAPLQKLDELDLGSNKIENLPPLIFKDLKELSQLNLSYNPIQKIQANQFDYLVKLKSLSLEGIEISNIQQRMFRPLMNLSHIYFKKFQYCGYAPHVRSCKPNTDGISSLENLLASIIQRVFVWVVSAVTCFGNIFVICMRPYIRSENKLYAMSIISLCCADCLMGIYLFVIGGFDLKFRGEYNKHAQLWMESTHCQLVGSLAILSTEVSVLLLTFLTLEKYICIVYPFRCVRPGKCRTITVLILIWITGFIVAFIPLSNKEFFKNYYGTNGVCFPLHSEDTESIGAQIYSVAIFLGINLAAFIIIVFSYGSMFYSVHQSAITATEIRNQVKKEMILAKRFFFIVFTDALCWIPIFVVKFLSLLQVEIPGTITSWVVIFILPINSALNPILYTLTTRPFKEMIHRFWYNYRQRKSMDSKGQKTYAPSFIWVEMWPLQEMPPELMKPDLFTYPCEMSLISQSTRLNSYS

T3: rat LGR7 (rat, UniProt Q6R6I6 1-758)
T3 construct: whole, on cells; Membranes of COS-7 cells transiently expressing rat LGR7; also called rat recombinant LGR7
T3 sequence (looked up): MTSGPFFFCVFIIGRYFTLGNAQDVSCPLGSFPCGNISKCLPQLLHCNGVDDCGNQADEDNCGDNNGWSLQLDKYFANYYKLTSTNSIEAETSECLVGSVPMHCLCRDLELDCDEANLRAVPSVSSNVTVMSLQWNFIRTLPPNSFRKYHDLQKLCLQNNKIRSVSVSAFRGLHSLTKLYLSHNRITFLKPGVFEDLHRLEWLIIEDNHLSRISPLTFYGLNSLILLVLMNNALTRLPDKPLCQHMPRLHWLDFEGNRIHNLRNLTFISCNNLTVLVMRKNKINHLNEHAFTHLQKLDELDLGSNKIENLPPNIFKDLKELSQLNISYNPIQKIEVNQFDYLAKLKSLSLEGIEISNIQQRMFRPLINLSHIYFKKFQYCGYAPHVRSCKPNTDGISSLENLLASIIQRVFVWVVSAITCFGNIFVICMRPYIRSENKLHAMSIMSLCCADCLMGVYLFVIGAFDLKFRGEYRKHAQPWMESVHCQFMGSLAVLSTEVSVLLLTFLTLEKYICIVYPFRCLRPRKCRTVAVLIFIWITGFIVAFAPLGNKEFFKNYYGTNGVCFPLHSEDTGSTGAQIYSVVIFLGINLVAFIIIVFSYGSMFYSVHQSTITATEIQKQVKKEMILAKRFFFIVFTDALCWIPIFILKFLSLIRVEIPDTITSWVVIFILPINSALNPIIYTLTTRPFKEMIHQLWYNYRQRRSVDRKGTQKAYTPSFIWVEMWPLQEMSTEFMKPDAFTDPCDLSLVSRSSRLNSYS

B1: Relaxin-3/INSL4 (R3/I4) chimeric polypeptide (ligand, human)
chain 1: RAAPYGVRLCGREFIRAVIFTCGGSRW
chain 2: FDPFCCEVICDDGTSVKLC
modifications: disulfide (positions not given here)
notes: domain: A-chain; Two chains joined by disulfide bonds; FLAG tag removed
B2: Relaxin-3/INSL6 (R3/I6) chimeric polypeptide (ligand, human)
chain 1: RAAPYGVRLCGREFIRAVIFTCGGSRW
chain 2: GYSEKCCLTGCTKEELSIAC
modifications: disulfide (positions not given here)
notes: as for B1
B3: Relaxin-3/Relaxin-1 (R3/R1) chimeric polypeptide (ligand, human)
chain 1: RAAPYGVRLCGREFIRAVIFTCGGSRW
chain 2: RPYVALFEKCCLIGCTKRSLAKYC
modifications: disulfide (positions not given here)
notes: domain: A-chain; Two chains joined by disulfide bonds; Made in COS-7 cells with furin, FLAG tag removed with enterokinase
B4: human relaxin-3 (ligand)
chain 1: RAAPYGVRLCGREFIRAVIFTCGGSRW
chain 2: DVLAGLSSSCCKWGCSKSEISSLC
modifications: ends and bridges not checked; also: also used as 125I-labelled tracer
notes: domain: A-chain; Mature two-chain hormone; also called R3; INSL7
B5: Relaxin-3/INSL3 (R3/I3) chimeric polypeptide (ligand, human)
chain 1: RAAPYGVRLCGREFIRAVIFTCGGSRW
chain 2: NPARYCCLSGCTQQDLLTLC
modifications: disulfide (positions not given here)
notes: as for B1
B6: Relaxin-3/Relaxin-2 (R3/R2) chimeric polypeptide (ligand, human)
chain 1: RAAPYGVRLCGREFIRAVIFTCGGSRW
chain 2: QLYSALANKCCHVGCTKRSLARFC
modifications: disulfide (positions not given here); also: two chains joined by disulfide bonds, pairing not given here
notes: as for B1
B7: human INSL3 (ligand)
chain 1: PTPEMREKLCGHHFVRALVRVCGGPRWSTEA
chain 2: AAATNPARYCCLSGCTQQDLLTLCPY
modifications: ends and bridges not checked; also: also used as 125I-labelled tracer
B8: Relaxin-3/INSL5 (R3/I5) chimeric polypeptide (ligand)
chain 1: RAAPYGVRLCGREFIRAVIFTCGGSRW
chain 2: DLQTLCCTDGCSMTDLSALC
modifications: disulfide (positions not given here); also: two chains joined by disulfide bonds, places not given here
notes: Two chains joined by disulfide bonds; FLAG tag removed with enterokinase; also called R3/I5 chimera; I5/R3

Legend:
[1] = target: T4, human LGR8 (human, UniProt Q8WXD0 1-754); experiment: competition with 100 pM [125I]-INSL3, live COS-7 cells expressing human LGR8; ND denotes no activity was detected
T4 construct: whole, on cells; also called LGRB
T4 sequence (Q8WXD0 whole entry): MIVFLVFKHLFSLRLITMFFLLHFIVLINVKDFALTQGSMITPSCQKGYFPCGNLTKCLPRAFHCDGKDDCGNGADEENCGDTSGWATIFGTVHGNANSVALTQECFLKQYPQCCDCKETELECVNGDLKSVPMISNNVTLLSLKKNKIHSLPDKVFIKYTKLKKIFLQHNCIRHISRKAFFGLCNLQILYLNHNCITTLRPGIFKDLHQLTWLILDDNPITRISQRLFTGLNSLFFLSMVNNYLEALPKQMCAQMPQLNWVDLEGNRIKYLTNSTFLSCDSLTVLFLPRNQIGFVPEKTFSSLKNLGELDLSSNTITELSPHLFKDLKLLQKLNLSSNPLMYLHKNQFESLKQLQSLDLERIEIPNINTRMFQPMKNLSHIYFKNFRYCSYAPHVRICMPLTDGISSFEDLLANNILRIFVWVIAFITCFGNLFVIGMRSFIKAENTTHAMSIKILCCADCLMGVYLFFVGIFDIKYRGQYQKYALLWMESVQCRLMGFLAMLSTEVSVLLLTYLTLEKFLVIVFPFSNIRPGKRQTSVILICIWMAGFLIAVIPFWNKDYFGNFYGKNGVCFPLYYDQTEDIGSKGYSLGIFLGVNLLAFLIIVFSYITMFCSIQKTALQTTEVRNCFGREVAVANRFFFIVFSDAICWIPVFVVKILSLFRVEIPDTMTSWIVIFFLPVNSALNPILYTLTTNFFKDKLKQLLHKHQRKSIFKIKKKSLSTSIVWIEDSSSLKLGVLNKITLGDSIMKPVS

[2] = target: T1, human GPCR135; experiment: competition with 100 pM [125I]-relaxin-3, COS-7 membranes with human GPCR135
[3] = target: T2, human LGR7; experiment: competition with 100 pM [125I]-relaxin-3, live COS-7 cells expressing human LGR7; ND denotes no activity was detected
[4] = target: T1, human GPCR135; experiment: cell-based or functional assay
[5] = target: T5, human GPCR142 (human, UniProt Q8TDU9 1-374); experiment: cell-based or functional assay
T5 sequence (Q8TDU9 whole entry L329S, form in doubt): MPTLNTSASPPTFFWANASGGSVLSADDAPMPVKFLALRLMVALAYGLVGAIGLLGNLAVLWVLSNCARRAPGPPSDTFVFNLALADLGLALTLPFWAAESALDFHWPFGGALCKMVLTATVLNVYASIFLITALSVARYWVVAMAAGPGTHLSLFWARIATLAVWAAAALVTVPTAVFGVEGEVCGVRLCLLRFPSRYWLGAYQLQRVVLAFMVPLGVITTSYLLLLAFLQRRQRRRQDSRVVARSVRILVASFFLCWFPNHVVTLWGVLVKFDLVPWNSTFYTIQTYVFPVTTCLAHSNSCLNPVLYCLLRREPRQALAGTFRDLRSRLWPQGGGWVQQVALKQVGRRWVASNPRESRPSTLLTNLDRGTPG

[6] = target: T5, human GPCR142; experiment: competition with 100 pM [125I]-relaxin-3, COS-7 membranes with human GPCR142
[7] = target: T2, human LGR7; experiment: cell-based or functional assay
[8] = target: T2, human LGR7; experiment: competition with 100 pM [125I]-relaxin-3, live COS-7 cells with human LGR7
[9] = target: T2, human LGR7; experiment: radioligand competition, human LGR7 (Table 1 prints 12.9)
[10] = target: T4, human LGR8; experiment: cell-based or functional assay
[11] = target: T4, human LGR8; experiment: competition with 100 pM [125I]-INSL3, live COS-7 cells with human LGR8
[12] = target: T6, rat GPCR135 (rat, UniProt Q5Y987 29-469); experiment: quantitative receptor autoradiography, displacement of 7 pM [125I]R3/I5 from rat brain sections; olfactory bulb; unit from paragraph 235
T6 construct: whole, on cells; also called rat recombinant GPCR135

[13] = target: T6, rat GPCR135; experiment: quantitative receptor autoradiography, displacement of 7 pM [125I]R3/I5 from rat brain sections; superior colliculus; unit from paragraph 235
[14] = target: T2, human LGR7; experiment: cell-based or functional assay; remark: listed apart in the source
[15] = target: T6, rat GPCR135; experiment: quantitative receptor autoradiography, displacement of 7 pM [125I]R3/I5 from rat brain sections; cortex; unit from paragraph 235
[16] = target: T4, human LGR8; experiment: radioligand competition with [125I]-INSL3, human LGR8; lower end tied to R3/I3 by Table 1
[17] = target: T1, human GPCR135; experiment: cell-based or functional assay; remark: listed apart in the source
[18] = target: T5, human GPCR142; experiment: cell-based or functional assay; remark: listed apart in the source
[19] = target: T4, human LGR8; experiment: cell-based or functional assay; remark: listed apart in the source
[20] = target: T2, human LGR7; experiment: radioligand competition, human LGR7 (Table 1 prints 724 nM)
[21] = target: T6, rat GPCR135; experiment: ratio of IC50 values from radioligand competition on rat GPCR135 and rat LGR7
[22] = target: T2, human LGR7; experiment: discussion of the radioligand binding results of Examples 3-5
[23] = target: T1, human GPCR135; experiment: as above
[24] = target: T3, rat LGR7; experiment: competition with 100 pM [125I] human relaxin-2, COS-7 membranes with rat LGR7
[25] = target: T6, rat GPCR135; experiment: competition with 100 pM [125I] human R3, COS-7 membranes with rat GPCR135

Binder | binding result [1] | IC50 [2] [nM] | EC50, inhibition of forskolin stimulated β-galactosidase expression [4] [nM] | EC50, inhibition of forskolin stimulated β-galactosidase expression [5] [nM] | IC50 [6] [nM] | EC50, ligand stimulated β-galactosidase expression [7] [nM] | IC50 [8] [nM] | EC50, ligand stimulated β-galactosidase expression [10] [nM] | IC50 [11] [nM] | further results
B1 | no binding | > 1000 | > 1000 | > 1000 | > 1000 |  |  |  |  | binding result [3]: no binding (tested: 1 µM)
B2 | no binding | 9.5 | 8.4 | 11.2 | 11.3 | 13.7 | 12.9 |  |  | IC50 [9]: 15 nM
B3 |  | 2.9 | 1.8 |  | 2.6 | 4.5 | 5.1 | > 1000 | > 1000 | 
B4 |  |  |  |  |  |  |  |  |  | IC50 [12]: 0.3 nM; IC50 [13]: 0.3 nM; stimulation of β-galactosidase activity in SK-N-MC/β-gal cells, EC50 [14]: 1.4 nM; IC50 [15]: 0.4 nM
B5 |  |  |  | 2.9 | 3.5 | 2.5 | 2.3 | 258 | 475 | IC50 [16]: 500 nM
B6 |  | 1.2 | 1.1 | 1.4 | 1.8 | 1.1 | 1.5 | 575 | 615 | 
RAAPYGVRLCGREFIRAVIFTCGGSRW [synthetic human relaxin-3 B-chain] |  |  |  |  |  |  |  |  |  | inhibition of forskolin-stimulated β-galactosidase activity in SK-N-MC/β-gal cells, EC50 [17]: 88 nM; inhibition of forskolin-stimulated β-galactosidase activity in SK-N-MC/β-gal cells, EC50 [18]: 125 nM
B7 |  |  |  |  |  |  |  |  |  | induction of β-galactosidase activity in SK-N-MC/β-gal cells, EC50 [19]: 0.16 nM
B8 | no binding | 0.68 | 0.45 | 0.91 | 1.4 | 412 | 724 |  |  | IC50 [20]: ~500 nM; fold selective over rat LGR7 [21]: 800 fold; Kd [22]: ~500 nM; Kd [23]: ~0.5 nM; IC50 [24]: > 400 nM; IC50 [25]: 0.5 nM
